In one assay the target is T1, mouse IgE (mouse, UniProt P06336 1-421).
T1 heavy (looked up): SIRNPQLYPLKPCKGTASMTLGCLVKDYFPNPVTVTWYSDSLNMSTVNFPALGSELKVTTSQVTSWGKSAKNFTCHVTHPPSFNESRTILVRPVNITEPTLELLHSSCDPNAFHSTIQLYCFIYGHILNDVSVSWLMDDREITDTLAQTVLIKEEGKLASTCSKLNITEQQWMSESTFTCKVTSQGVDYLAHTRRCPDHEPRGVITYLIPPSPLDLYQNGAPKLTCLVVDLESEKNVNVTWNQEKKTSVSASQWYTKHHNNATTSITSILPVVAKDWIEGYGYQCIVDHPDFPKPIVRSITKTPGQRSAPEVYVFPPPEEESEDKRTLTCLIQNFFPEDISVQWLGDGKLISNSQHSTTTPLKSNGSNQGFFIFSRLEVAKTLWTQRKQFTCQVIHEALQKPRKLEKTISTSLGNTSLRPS
As to the kind of experiment: cell-based or functional assay.

The next assay has as its target T2, human IgE (human, UniProt P01854-1 1-428).
T2 heavy (looked up): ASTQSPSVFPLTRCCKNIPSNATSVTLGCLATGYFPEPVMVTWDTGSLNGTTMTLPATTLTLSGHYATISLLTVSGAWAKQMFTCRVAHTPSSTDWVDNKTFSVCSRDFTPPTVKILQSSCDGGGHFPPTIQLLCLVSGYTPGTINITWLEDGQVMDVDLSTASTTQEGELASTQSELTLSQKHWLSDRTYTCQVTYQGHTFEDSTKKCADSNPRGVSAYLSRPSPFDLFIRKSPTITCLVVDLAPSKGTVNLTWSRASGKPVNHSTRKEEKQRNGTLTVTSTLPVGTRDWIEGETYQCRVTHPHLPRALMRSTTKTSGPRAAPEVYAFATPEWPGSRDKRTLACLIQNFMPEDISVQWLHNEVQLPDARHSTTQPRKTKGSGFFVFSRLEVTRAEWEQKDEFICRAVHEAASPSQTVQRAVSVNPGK
As to the kind of experiment: cell-based or functional assay.

In a further assay the target is T3, FcγRI.
T3 construct: not in the MOLECULES list; also called IgG receptor FcγRI; Fc gamma receptor I
T3 chain: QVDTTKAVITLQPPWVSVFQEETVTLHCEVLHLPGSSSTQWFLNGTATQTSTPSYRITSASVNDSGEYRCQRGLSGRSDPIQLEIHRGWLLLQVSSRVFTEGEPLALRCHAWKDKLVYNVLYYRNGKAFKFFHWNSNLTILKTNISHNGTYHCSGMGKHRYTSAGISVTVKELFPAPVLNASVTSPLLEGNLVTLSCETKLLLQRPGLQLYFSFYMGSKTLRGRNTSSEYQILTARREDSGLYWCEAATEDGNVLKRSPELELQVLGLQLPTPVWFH
As to the kind of experiment: BLI (Octet RED384), FcγRI immobilised on AR2G biosensor, IgETRAP 0.25-4 µM in solution. The method, then:
FcγRI, FcγRIIA, FcγRIIB, FcγRIIIA, and FcγRIIIB recombinant proteins (R & D Systems Inc., 5 μg/ml) were immobilized in 300 mM acetate buffer (pH 5) on the activated AR2G biosensor. As a running buffer, PBS containing 0.1% Tween-20 and 1% bovine serum was used. All experiments were carried out at 30° C. with a sample plate shaker at a rate of 1,000 rpm.
(BLI is a label-free optical method that tracks binding on a fibre tip over time.)

The next assay concerns the target T4, IgE.
T4 construct: also called immunoglobulin E
As to the kind of experiment: SPR (ProteOn XPR36), KD against omalizumab as reference; the same paragraph ties 69-fold to FcεRIαECD-Fc2ST. How it is done:
The experiments were conducted by identifying zero base using 25 mM NaOH as a regeneration buffer, and then repeating the above steps. Thereafter, a binding curve was identified using a protein binding analyzer (ProteOn XPR36, Bio-Rad Laboratories, Inc., USA).

B1: FcεRIαECD-Fc2 (Fc fusion)
chain: VPQKPKVSLNPPWNRIFKGENVTLTCNGNNFFEVSSTKWFHNGSLSEETNSSLNIVNAKFEDSGEYKCQHQQVNESEPVYLEVFSDWLLLQASAEVVMEGQPLFLRCHGWRNWDVYKVIYYKDGEALKYWYENHNISITNATVEDSGTYYCTGKVWQLDYESEPLNITVIKAPREKYWLQRNTGRGGEEKKGSKEKEEQEERETKTPECPSHTQPLGVFLFPPKPKDTLMISRTPEVTCVVVDVSQEDPEVQFNWYVDGVEVHNAKTKPREEQFNSTYRVVSVLTVLHQDWLNGKEYKCKVSNKGLPSSIEKTISKAKGQPREPQVYTLPPSQEEMTKNQVSLTCLVKGFYPSDIAVEWESNGQPENNYKTTPPVLDSDGSFFLYSRLTVDKSRWQEGNVFSCSVMHEALHNHYTQKSLSLSLGK
For B1, in the assay with mouse IgE, the “mast cell inhibition ratio (β-hexosaminidase release, mouse bone marrow-derived mast cells) at 0.5 ug/mL” value was about 49.4% and the “mast cell inhibition ratio (β-hexosaminidase release, mouse bone marrow-derived mast cells) at 1 ug/mL” value is about 99.4%.

B2: FcεRIαECD-Fc2ST (Fc fusion)
chain: B1 chain
modifications: sialic acid added (co-expressed with α-2,6-sialic acid transferase)
notes: also called IgETRAP; FcεRIαECD-Fc2 + a2,6-ST
As to B2, in the assay with human IgE, the “IC50 of mast cell inhibition (β-hexosaminidase release, human FcεRI-expressing mouse bone marrow-derived mast cells)” value is about 0.0112 µg/mL and the “inhibitory ability on mast cell activity, fold against Xolair” value came out at 58 fold. The binding result with FcγRI is recorded as “no binding (tested: 4 µM)”. In the assay with IgE, the “fold difference of KD against omalizumab (printed as 'higher')” value lay in the range of 22 to 69 fold.
